T1: Lsb1, P53281
T1 sequence (P53281 45-122, looked up): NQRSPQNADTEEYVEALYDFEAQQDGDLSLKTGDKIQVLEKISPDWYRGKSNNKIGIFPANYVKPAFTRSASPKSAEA

T2: Lsb3, P43603
T2 sequence (P43603 385-451, looked up): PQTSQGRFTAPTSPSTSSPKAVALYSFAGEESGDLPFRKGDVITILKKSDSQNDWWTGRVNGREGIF

T3: Boi1, P38041
T3 sequence (P38041 1-86, looked up): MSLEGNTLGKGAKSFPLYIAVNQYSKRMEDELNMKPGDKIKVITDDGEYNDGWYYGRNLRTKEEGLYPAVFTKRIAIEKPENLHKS

T4: Bzz1-1, P38822
T4 sequence (P38822 478-572, looked up): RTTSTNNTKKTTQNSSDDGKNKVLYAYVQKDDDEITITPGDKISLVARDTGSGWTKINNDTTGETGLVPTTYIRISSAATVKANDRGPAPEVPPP

T5: Bud14, P27637
T5 sequence (P27637 247-328, looked up): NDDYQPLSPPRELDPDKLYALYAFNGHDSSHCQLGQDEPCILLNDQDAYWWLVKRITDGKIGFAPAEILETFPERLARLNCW

T6: Bzz1-2, P38822
T6 sequence (P38822 568-633, looked up): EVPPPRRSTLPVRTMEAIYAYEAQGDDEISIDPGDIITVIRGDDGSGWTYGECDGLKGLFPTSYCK

T7: Pin3, Q06449
T7 sequence (Q06449 53-122, looked up): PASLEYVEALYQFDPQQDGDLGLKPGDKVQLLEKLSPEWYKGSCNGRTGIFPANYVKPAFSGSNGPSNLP

T8: Pex13, P80667
T8 sequence (P80667 295-386, looked up): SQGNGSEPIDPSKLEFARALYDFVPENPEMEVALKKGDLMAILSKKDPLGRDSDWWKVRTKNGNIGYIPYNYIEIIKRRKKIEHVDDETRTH

T9: Sla1-2, P32790
T9 sequence (P32790 60-140, looked up): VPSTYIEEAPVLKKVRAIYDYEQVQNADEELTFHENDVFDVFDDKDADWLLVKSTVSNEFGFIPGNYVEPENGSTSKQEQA

T10: Lsb4, P32793
T10 sequence (P32793 402-468, looked up): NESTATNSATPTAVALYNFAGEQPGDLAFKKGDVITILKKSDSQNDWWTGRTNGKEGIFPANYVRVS

T11: Sla1-3, P32790
T11 sequence (P32790 344-424, looked up): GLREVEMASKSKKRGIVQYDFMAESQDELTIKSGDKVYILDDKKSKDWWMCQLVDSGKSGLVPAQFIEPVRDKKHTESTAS

T12: Hse1, P38753
T12 sequence (P38753 208-285, looked up): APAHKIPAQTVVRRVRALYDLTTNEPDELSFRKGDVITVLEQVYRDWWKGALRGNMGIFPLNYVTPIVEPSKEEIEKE

T13: Abp1, P15891
T13 sequence (P15891 535-592, looked up): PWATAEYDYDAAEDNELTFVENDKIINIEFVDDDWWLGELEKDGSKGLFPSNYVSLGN

T14: Cdc25, P04821
T14 sequence (P04821 50-136, looked up): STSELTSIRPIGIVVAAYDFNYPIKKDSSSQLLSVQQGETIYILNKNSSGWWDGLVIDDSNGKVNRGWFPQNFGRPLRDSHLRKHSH

T15: Fus1, P11710
T15 sequence (P11710 432-512, looked up): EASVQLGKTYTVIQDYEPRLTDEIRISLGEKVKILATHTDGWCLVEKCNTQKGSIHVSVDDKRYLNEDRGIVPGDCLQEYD

T16: Hof1, Q05080
T16 sequence (Q05080 590-669, looked up): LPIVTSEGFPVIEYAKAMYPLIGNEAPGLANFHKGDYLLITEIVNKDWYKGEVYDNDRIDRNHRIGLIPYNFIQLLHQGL

T17: Nbp2, Q12163
T17 sequence (Q12163 103-180, looked up): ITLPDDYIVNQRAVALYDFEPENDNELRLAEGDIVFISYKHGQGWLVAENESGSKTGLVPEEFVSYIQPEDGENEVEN

T18: Cyk3, Q07533
T18 sequence (Q07533 1-83, looked up): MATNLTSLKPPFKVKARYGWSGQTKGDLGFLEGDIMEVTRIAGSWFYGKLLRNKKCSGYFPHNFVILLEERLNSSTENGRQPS

T19: Myo5, Q04439
T19 sequence (Q04439 1072-1160, looked up): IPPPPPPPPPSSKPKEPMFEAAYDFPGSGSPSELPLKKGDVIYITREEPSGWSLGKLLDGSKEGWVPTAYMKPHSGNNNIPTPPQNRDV

T20: Boi2, P39969
T20 sequence (P39969 32-116, looked up): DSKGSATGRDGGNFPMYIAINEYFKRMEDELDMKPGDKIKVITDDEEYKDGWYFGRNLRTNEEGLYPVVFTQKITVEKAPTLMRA

T21: Bbc1, P47068
T21 sequence (P47068 1-78, looked up): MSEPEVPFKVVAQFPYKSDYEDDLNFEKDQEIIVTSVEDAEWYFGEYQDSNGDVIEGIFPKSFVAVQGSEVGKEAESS


Tests used:
Test in all cases: SPOT array
Lsb1, P53281 = biological target: T1, Lsb1, P53281; settings: median of control spots 388
Lsb3, P43603 = biological target: T2, Lsb3, P43603; settings: median of control spots 406
Boi1, P38041 = biological target: T3, Boi1, P38041; settings: median of control spots 1162
Bzz1-1, P38822 = biological target: T4, Bzz1-1, P38822; settings: median of control spots 4446
Rvs167, P39743 = settings: median of control spots 2707
Sequence of Rvs167, P39743 (P39743 419-482): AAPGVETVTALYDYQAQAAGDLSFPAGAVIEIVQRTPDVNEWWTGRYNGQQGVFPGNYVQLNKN

GST = settings: median of control spots 978
Bud14, P27637 = biological target: T5, Bud14, P27637; settings: median of control spots 956
Bzz1-2, P38822 = biological target: T6, Bzz1-2, P38822; settings: median of control spots 4538
Bem1-1, P29366 = settings: median of control spots 4282
Sequence of Bem1-1, P29366 (P29366 55-141): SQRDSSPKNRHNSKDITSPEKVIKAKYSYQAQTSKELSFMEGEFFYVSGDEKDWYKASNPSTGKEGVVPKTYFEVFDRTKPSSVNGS

Pin3, Q06449 = biological target: T7, Pin3, Q06449; settings: median of control spots 2171
Pex13, P80667 = biological target: T8, Pex13, P80667; settings: median of control spots 1341
Sla1-2, P32790 = biological target: T9, Sla1-2, P32790; settings: median of control spots 712
Sho1, P40073 = settings: median of control spots 1148
Sequence of Sho1, P40073 (P40073 287-367): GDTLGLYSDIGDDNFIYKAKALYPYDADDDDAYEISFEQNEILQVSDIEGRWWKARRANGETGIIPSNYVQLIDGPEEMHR

Lsb4, P32793 = biological target: T10, Lsb4, P32793; settings: median of control spots 397
Sla1-3, P32790 = biological target: T11, Sla1-3, P32790; settings: median of control spots 5475
Bem1-2, P29366 = settings: median of control spots 4347
Sequence of Bem1-2, P29366 (P29366 139-227): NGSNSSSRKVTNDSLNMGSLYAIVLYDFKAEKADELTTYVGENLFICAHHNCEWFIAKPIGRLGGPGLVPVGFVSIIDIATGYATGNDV

Hse1, P38753 = biological target: T12, Hse1, P38753; settings: median of control spots 1727
Abp1, P15891 = biological target: T13, Abp1, P15891; settings: median of control spots 935
Cdc25, P04821 = biological target: T14, Cdc25, P04821; settings: median of control spots 969
Fus1, P11710 = biological target: T15, Fus1, P11710; settings: median of control spots 1200
Hof1, Q05080 = biological target: T16, Hof1, Q05080; settings: median of control spots 4086
Nbp2, Q12163 = biological target: T17, Nbp2, Q12163; settings: median of control spots 357
Myo3, P36006 = settings: median of control spots 468
Cyk3, Q07533 = biological target: T18, Cyk3, Q07533; settings: median of control spots 1451
Myo5, Q04439 = biological target: T19, Myo5, Q04439; settings: median of control spots 471
Boi2, P39969 = biological target: T20, Boi2, P39969; settings: median of control spots 1161
Bbc1, P47068 = biological target: T21, Bbc1, P47068; settings: median of control spots 796

Row | Binder | SPOT intensity (Lsb1, P53281) | SPOT intensity (Lsb3, P43603) | SPOT intensity (Boi1, P38041) | SPOT intensity (Bzz1-1, P38822) | SPOT intensity (Rvs167, P39743) | SPOT intensity (GST) | SPOT intensity (Bud14, P27637) | SPOT intensity (Bzz1-2, P38822) | SPOT intensity (Bem1-1, P29366) | SPOT intensity (Pin3, Q06449) | SPOT intensity (Pex13, P80667) | SPOT intensity (Sla1-2, P32790) | SPOT intensity (Sho1, P40073) | SPOT intensity (Lsb4, P32793) | SPOT intensity (Sla1-3, P32790) | SPOT intensity (Bem1-2, P29366) | SPOT intensity (Hse1, P38753) | SPOT intensity (Abp1, P15891) | SPOT intensity (Cdc25, P04821) | SPOT intensity (Fus1, P11710) | also measured
1 | QPQRTAPKPPISAPR | 3 | 2 | 0 | 2 | 0 | 0 | 2 | 2 | 0 | 7 | 44 | 0 | 0 | 1 | 9 | 45 | 0 | 42 | 3 | 0 | SPOT intensity (Hof1, Q05080): 0; SPOT intensity (Nbp2, Q12163): 276; SPOT intensity (Myo3, P36006): 294; SPOT intensity (Cyk3, Q07533): 0; SPOT intensity (Myo5, Q04439): 230; SPOT intensity (Boi2, P39969): 1; SPOT intensity (Bbc1, P47068): 55
2 | LEFRAILFIPKRAPF | 35 | 26 | 10 | 0 | 0 | 0 | 13 | 0 | 3 | 68 | 59 | 6 | 103 | 18 | 8 | 1 | 6 | 92 | 29 | 87 | SPOT intensity (Hof1, Q05080): 5; SPOT intensity (Nbp2, Q12163): 53; SPOT intensity (Myo3, P36006): 34; SPOT intensity (Cyk3, Q07533): 1; SPOT intensity (Myo5, Q04439): 9; SPOT intensity (Boi2, P39969): 4; SPOT intensity (Bbc1, P47068): 22

Further lines, with some results ahead:

Row | SPOT intensity (Lsb1, P53281) | SPOT intensity (Lsb3, P43603) | SPOT intensity (Boi1, P38041) | SPOT intensity (Bzz1-1, P38822) | SPOT intensity (Rvs167, P39743) | SPOT intensity (GST) | SPOT intensity (Bud14, P27637) | SPOT intensity (Bzz1-2, P38822) | SPOT intensity (Bem1-1, P29366) | SPOT intensity (Pin3, Q06449) | SPOT intensity (Pex13, P80667) | SPOT intensity (Sla1-2, P32790) | SPOT intensity (Sho1, P40073) | SPOT intensity (Lsb4, P32793) | SPOT intensity (Sla1-3, P32790) | SPOT intensity (Bem1-2, P29366) | SPOT intensity (Hse1, P38753) | SPOT intensity (Abp1, P15891) | SPOT intensity (Cdc25, P04821) | SPOT intensity (Fus1, P11710) | Binder | also measured
3 | 24 | 45 | 0 | 0 | 0 | 1 | 0 | 2 | 0 | 192 | 116 | 2 | 4 | 33 | 2 | 2 | 0 | 102 | 0 | 0 | STPQTMRQAPKRPDA | SPOT intensity (Hof1, Q05080): 0; SPOT intensity (Nbp2, Q12163): 53; SPOT intensity (Myo3, P36006): 47; SPOT intensity (Cyk3, Q07533): 1; SPOT intensity (Myo5, Q04439): 47; SPOT intensity (Boi2, P39969): 1; SPOT intensity (Bbc1, P47068): 8
4 | 171 | 38 | 1 | 1720 | 45 | 2 | 8 | 4030 | 0 | 11 | 8 | 4 | 46 | 39 | 1790 | 109 | 29 | 107 | 0 | 0 | VRTRRRPPPPPIPST | SPOT intensity (Hof1, Q05080): 6; SPOT intensity (Nbp2, Q12163): 35; SPOT intensity (Myo3, P36006): 296; SPOT intensity (Cyk3, Q07533): 1; SPOT intensity (Myo5, Q04439): 188; SPOT intensity (Boi2, P39969): 1; SPOT intensity (Bbc1, P47068): 115

Source: PMC2756588
